Laboratory results published in PMC6246682, “Structural Basis of Tau Interaction With BIN1 and Regulation by Tau Phosphorylation” (Frontiers in Molecular Neuroscience, 2018).

Target: T1, BIN1 SH3 domain (UniProt O00499 513-593)
T1 construct: C-terminal SH3 domain of bridging integrator-1 (BIN1, amphiphysin 2); printed residues E556, E557, W562, F588 fit the 593-residue BIN1 isoform 1; Used 15N-labelled in the titrations and relaxation experiments; Construct limits, host and tags are in Malki et al., 2017; PDB 5i22 is a cited NMR structure of BIN1 SH3 in a complex, used as the starting point of the docking; also called SH3 domain of …
T1 sequence: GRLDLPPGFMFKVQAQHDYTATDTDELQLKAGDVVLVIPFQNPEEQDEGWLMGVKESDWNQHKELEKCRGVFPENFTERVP
Assay: NMR titration; 70 μM 15N-BIN1 SH3 titrated with unlabeled Tau (210–240) peptides (35 to 840 μM); 1H,15N HSQC chemical shift changes; 50 mM phosphate buffer pH 7.3, 20°C; Kd averaged over 7 resonances
Conditions: both partners purified

B1: Tau (210–240) peptide with K224 and K225 mutated into alanines (peptide, UniProt P10636-8 210-240, looked up)
peptide: SRTPSLPTPPTREPAAVAVVRTPPKSPSSAK
notes: Tau residues 210-240 with K224A and K225A; probably as m2; also called the mutated peptide
- Kd: 429 ± 94 µM
